Data from patent US20110306105A1 (University of California, published 2011).

T1: scaffoldin Scaf-ct displayed on the yeast cell surface (chimeric: C. cellulolyticum, C. …)
T1 construct: also called Sacf-ct; not shown: yeast surface display anchor of vector pCTCON2; C-terminal c-Myc tag
T1 chain: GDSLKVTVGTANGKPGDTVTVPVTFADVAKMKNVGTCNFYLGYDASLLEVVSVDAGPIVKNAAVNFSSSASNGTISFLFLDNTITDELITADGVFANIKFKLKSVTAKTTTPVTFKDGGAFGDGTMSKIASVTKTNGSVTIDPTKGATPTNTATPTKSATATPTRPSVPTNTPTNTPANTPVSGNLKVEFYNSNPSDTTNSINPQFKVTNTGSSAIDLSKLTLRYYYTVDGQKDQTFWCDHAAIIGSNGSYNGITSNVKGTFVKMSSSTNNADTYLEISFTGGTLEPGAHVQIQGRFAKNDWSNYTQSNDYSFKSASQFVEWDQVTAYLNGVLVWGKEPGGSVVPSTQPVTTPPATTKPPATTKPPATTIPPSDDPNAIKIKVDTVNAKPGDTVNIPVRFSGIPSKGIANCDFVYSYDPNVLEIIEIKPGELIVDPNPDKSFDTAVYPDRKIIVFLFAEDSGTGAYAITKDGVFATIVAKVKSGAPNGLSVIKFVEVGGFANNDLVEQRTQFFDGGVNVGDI

T2: scaffoldin Scaf-c displayed on the yeast cell surface (chimeric: C. cellulolyticum cohesin …)
T2 construct: also called Sacf-c; not shown: yeast surface display anchor of vector pCTCON2; C-terminal c-Myc tag
T2 chain: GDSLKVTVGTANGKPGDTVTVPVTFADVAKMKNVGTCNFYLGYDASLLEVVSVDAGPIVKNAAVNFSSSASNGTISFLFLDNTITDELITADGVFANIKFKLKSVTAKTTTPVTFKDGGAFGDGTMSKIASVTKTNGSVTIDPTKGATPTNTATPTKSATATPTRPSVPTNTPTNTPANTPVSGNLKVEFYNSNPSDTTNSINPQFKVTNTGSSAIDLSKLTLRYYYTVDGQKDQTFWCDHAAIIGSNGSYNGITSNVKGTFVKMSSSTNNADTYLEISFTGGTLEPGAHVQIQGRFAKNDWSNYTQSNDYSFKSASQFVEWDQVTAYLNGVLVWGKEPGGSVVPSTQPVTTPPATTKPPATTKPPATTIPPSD

T3: trifunctional scaffoldin Scaf-ctf displayed on the yeast (S. cerevisiae EBY100) cell surface (chimeric: C. cellulolyticum, C. …, Displayed on the S. cerevisiae EBY100 cell surface through an N-terminal anchor fusion, which the letters do not carry.)
T3 construct: also called Sacf-ctf; SCAF6; not shown: N-terminal yeast display anchor and linker of vector pCTCON2 (called the GPI anchor); C-terminal c-Myc tag; the vector junctions; possibly a His stretch carried over from pETscaf6, since reverse primer R1SalI anneals on His codons
T3 chain: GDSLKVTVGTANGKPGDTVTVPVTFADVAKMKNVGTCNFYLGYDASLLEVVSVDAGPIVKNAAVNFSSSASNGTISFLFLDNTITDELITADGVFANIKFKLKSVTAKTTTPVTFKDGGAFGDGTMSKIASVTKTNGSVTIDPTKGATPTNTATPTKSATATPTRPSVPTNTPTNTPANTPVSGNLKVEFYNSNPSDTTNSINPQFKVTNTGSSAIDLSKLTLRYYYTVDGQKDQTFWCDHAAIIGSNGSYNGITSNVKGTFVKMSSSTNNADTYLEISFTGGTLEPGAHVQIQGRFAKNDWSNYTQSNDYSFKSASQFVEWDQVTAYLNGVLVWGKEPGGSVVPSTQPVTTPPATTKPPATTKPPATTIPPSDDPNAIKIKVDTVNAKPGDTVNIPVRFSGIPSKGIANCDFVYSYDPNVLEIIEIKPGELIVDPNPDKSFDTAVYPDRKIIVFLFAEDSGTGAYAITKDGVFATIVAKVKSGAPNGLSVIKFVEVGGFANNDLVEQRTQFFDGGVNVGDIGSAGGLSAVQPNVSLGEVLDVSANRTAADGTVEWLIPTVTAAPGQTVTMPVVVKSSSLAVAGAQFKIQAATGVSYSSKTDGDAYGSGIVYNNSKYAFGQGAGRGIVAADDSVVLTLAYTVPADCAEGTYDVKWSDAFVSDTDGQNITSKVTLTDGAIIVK


Assays:
[1] = target: T1, scaffoldin Scaf-ct displayed on the …; assay: immunofluorescence microscopy with anti-His6 on yeast displaying Scaf-ct incubated with E. coli lysate
[2] = target: T2, scaffoldin Scaf-c displayed on the …; assay: immunofluorescence microscopy with anti-His6 on yeast displaying Scaf-c incubated with E. coli lysate
[3] = target: T3, trifunctional scaffoldin Scaf-ctf …; assay: immunofluorescence microscopy, yeast displaying Scaf-ctf incubated with E. coli lysate
Procedure: After incubation for 2 h, cells were pelleted, washed twice with PBS, and resuspended in PBS to an OD at 600 nm of 1. For fluorescence microscopy (Olympus BX51), 5- to 10_l volumes of cell suspensions were spotted onto slides and a coverslip was added. […] Whole-cell fluorescence was measured with a fluorescence microplate reader (Synergy4; BioTek, VT) at an excitation wavelength of 485 nm and an emission wavelength of 535 nm.
A His6 tag was added to the C terminus of each of the dockerin domains for detection of the assembly.

Row | Binder | binding result [1] | binding result [2] | binding result [3]
1 | endoglucanase CelG from C. cellulolyticum fused to a dockerin domain from R. flavefaciens (Gf), His6-tagged (enzyme, Expressed in E. coli; also called CelG-Df) MGTYNYGEALQKSIMFYEFQRSGDLPADKRDNWRDDSGMKDGSDVGVDLTGGWYDAGDHVKFNLPMSYTSAMLAWSLYEDKDAYDKSGQTKYIMDGIKWANDYFIKCNPTPGVYYYQVGDGGKDHSWWGPAEVMQMERPSFKVDASKPGSAVCASTAASLASAAVVFKSSDPTYAEKCISHAKNLFDMADKAKSDAGYTAASGYYSSSSFYDDLSWAAVWLYLATNDSTYLDKAESYVPNWGKEQQTDIIAYKWGQCWDDVHYGAELLLAKLTNKQLYKDSIEMNLDFWTTGVNGTRVSYTPKGLAWLFQWGSLRHATTQAFLAGVYAEWEGCTPSKVSVYKDFLKSQIDYALGSTGRSFVVGYGVNPPQHPHHRTAHGSWTDQMTSPTYHRHTIYGALVGGPDNADGYTDEINNYVNNEIACDYNAGFTGALAKMYKHSGGDPIPNFKAIEKITNDEVIIKAGLNSTGPNYTEIKAVVYNQTGWPARVTDKISFKYFMDLSEIVAAGIDPLSLVTSSNYSEGKNTKVSGVLPWDVSNNVYYVNVDLTGENIYPGGQSACRREVQFRIAAPQGRRYWNPKNDFSYDGLPTTSTVNTVTNIPVYDNGVKVFGNEPAGGSEPGTKLVPTWGDTNCDGVVNVADVVVLNRFLNDPTYSNITDQGKVNADVVDPQDKSGAAVDPAGVKLTVADSEAILKAIVELITLPQHHHHHH | no binding | no binding | –
2 | exoglucanase CelE from C. cellulolyticum fused to a dockerin domain from the same species (Ec), His6-tagged (enzyme, Expressed in E. coli and used as cell lysate or purified; also called CelE-Dc) MLVGAGDLIRNHTFDNRVGLPWHVVESYPAKASFEITSDGKYKITAQKIGEAGKGERWDIQFRHRGLALQQGHTYTVKFTVTASRACKIYPKIGDQGDPYDEYWNMNQQWNFLELQANTPKTVTQTFTQTKGDKKNVEFAFHLAPDKTTSEAQNPASFQPITYTFDEIYIQDPQFAGYTEDPPEPTNVVRLNQVGFYPNADKIATVATSSTTPINWQLVNSTGAAVLTGKSTVKGADRASGDNVHIIDFSSYTTPGTDYKIVTDVSVTKAGDNESMKFNIGDDLFTQMKYDSMKYFYHNRSAIPIQMPYCDQSQWARPAGHTTDILAPDPTKDYKANYTLDVTGGWYDAGDHGKYVVNGGIATWTVMNAYERALHMGGDTSVAPFKDGSLAIPEAEVYPDILDEARYQLINMKTLLNSQVPAGKYAGMAHHKAHDERWTALAVRPDQDTMKRWLQPPSTAATLNLAAIAAQSSRLWKQFDSAFATKCLTAAETARDAAVAHPEIYATMEQGAGGGAYGDNYVLDDFYWAACELYATTGSDKYLNYIKSSKHYLEMPTELTGGENTGITGAFDWGCTAGMGTITLALVPTKLPAADVATAKANIQAAADKFISISKAQGYGVPLEEKVISSPFDASVVKGFQWGSNSFVINEAIVMSYAYEFSDVNGTKNNKYINGALTAMDYLLGRNPNIQSYITGYGDNPLENPHHRFWAYQADNTFPKPPPGCLSGGPNSGLQDPWVKGSGWQPGERPAEKCFMDNIESWSTNEITINWNAPLVWISAYLDEKGPEIGGSVTPPTNLGDVNGDGNKDALDFAALKKALLSQDTSTINVANADINKDGSIDAVDFALLKSFLLGKITQHHHHHH | – | – | binds
